The target in assay [1] is T1, human IL17A (human, UniProt Q16552 24-155).
T1 construct: also called interleukin-17A
T1 sequence (looked up): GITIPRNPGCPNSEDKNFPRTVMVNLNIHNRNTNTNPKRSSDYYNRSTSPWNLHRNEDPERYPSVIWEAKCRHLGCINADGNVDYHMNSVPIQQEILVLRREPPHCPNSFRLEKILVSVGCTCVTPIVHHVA
Briefly: ELISA, plates coated with IL17A, serial dilutions of sIL17R, detection with biotinylated anti-IL17RA and streptavidin-HRP. As for the experimental part: (§1) For sIL17R binding to IL17A, ELISA plates were coated with 100 μg/ml human IL17A or mouse IL17A overnight, then blocked with 1% BSA. Serial two-fold dilutions of sIL17R were added in triplicate to the plate and incubated for 1 h at 37° C. Unbound receptor was washed from the plate in an ELISA plate washer. 100 μl biotinylated anti-IL17RA (1 μg/ml) was added to each well and incubated 1 h at room temperature and excess antibody was washed away. Each well was incubated with streptavidin-HRP conjugate and washed. Bound HRP was measured by incubation with TMBD substrate for 20 minutes followed by addition of acid stop solution. OD was measured at 450 nm.
(In general: ELISA stands for enzyme-linked immunosorbent assay.)

For assay [2], the target named is T2, mouse IL17A (mouse, UniProt Q62386 26-158).
T2 construct: also called recombinant mouse Il17a
T2 sequence (looked up): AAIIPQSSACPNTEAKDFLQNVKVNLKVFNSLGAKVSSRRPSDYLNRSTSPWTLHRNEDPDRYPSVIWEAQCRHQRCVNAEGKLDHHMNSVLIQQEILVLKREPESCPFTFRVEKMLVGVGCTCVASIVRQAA
Described as above. How it is done: as §1

B1: sIL17R-9gly-CH3 (soluble human IL-17 receptor A linked by nine glycines to the CH3 domain of human IgG1) (Fc fusion)
chain: SLRLLDHRALVCSQPGLNCTVKNSTCLDDSWIHPRNLTPSSPKDLQIQLHFAHTQQGDLFPVAHIEWTLQTDASILYLEGAELSVLQLNTNERLCVRFEFLSKLRHHHRRWRFTFSHFVVDPDQEYEVTVHHLPKPIPDGDPNHQSKNFLVPDCEHARMKVTTPCMSSGSLWDPNITVETLEAHQLRVSFTLWNESTHYQILLTSFPHMENHSCFEHMHHIPAPRPEEFHQRSNVTLTLRNLKGCCRHQVQIQPFFSSCLNDCLRHSATVSCPEMPDTPEPIPDYMTGGGGGGGGGQPREPQVYTLPPSRDELTKNQVSLTCLVKGFYPSDIAVEWESNGQPENNYKTTPPVLDSDGSFFLYSKLTVDKSRWQQGNVFSCSVMHEALHNHYTQKSLSLSPG
notes: also called sIL17RA-9gly-CH3; sIL17R-9G-CH3
As to B1, the binding result in assay [1] and in assay [2] was “binds” each time.

Values taken from patent US20160068844A1 (Sanofi, published 2016).
